Test results: article PMC6172220, “Calcineurin B homologous protein 3 binds with high affinity to the CHP binding domain of the human sodium/proton exchanger NHE1” (Scientific Reports, 2006)
“And” between values parts separate entries of the source, which are not always exact repeats. Identical values can stand only once.

B1: MBP-CBD: CHP-binding region of human NHE1 (residues 503-545) fused to maltose-binding protein at its amino-terminus (domain or fragment, UniProt P19634 503-545, looked up)
chain: VDLLAVKKKQETKRSINEEIHTQFLDHLLTGIEDICGHYGHHH
notes: also called MBP-CBD^NHE1; NHE1-CBD; source: E. coli BL21 (DE3), purified (IMAC, SEC on Superdex 200); not shown: MBP, N-terminal, kept; His8, C-terminal, kept
B2: MBP-CBD: CHP-binding region of human NHE1 (residues 503-545) fused to maltose-binding protein (domain or fragment, UniProt P19634 503-545, looked up)
chain: VDLLAVKKKQETKRSINEEIHTQFLDHLLTGIEDICGHYGHHH
notes: The TEV site is printed without Tyr; No site for removal of the C-terminal His8 is described; also called MBP-CBD^NHE1; NHE1-CBD; source: E. coli BL21 (DE3), purified (IMAC, SEC); not shown: MBP (E. coli malE; UniProtKB P0AEX9 residues 27-393), N-terminal, kept
B3: human calcineurin B homologous protein 3 (CHP3), hexa-histidine tagged (natural protein, UniProt Q96BS2 2-214, looked up)
chain: GAAHSASEEVRELEGKTGFSSDQIEQLHRRFKQLSGDQPTIRKENFNNVPDLELNPIRSKIVRAFFDNRNLRKGPSGLADEINFEDFLTIMSYFRPIDTTMDEEQVELSRKEKLRFLFHMYDSDSDGRITLEEYRNVVEELLSGNPHIEKESARSIADGAMMEAASVCMGQMEPDQVYEGITFEDFLKIWQGIDIETKMHVRFLNMETMALCH
B4: human calcineurin B homologous protein 3 (CHP3), hexa-histidine tagged (natural protein, UniProt Q96BS2 2-214, looked up)
chain: GAAHSASEEVRELEGKTGFSSDQIEQLHRRFKQLSGDQPTIRKENFNNVPDLELNPIRSKIVRAFFDNRNLRKGPSGLADEINFEDFLTIMSYFRPIDTTMDEEQVELSRKEKLRFLFHMYDSDSDGRITLEEYRNVVEELLSGNPHIEKESARSIADGAMMEAASVCMGQMEPDQVYEGITFEDFLKIWQGIDIETKMHVRFLNMETMALCH
modifications: fluorescent label NT647, randomly attached, labelling efficiency about 30% (MST only)

Legend:
Conditions in all cases: both partners purified
[1] = target: B3; assay: ITC; CHP3 (nominal 200 uM) in the syringe injected into MBP-CBD (nominal 20 uM) in the cell, 57 injections, 25 °C; 20 mM HEPES, 150 mM NaCl, 10 mM MgCl2, 5 mM TCEP, pH 7.2; biological triplicates, raw data: each data set fitted freely (KD, dH, n, offset)
[2] = target: B3; assay: ITC; the same titrations (CHP3 in the syringe, MBP-CBD in the cell, 25 °C, ITC buffer pH 7.2) refitted one by one after the triple-shift correction: corrected active concentrations of CHP3 and MBP-CBD, dH fixed to the average of the raw fits, n = 1 by the correction
[3] = target: B4; assay: ITC; 200 uM CHP3 in the syringe injected into 20 uM MBP-CBD in the cell, 57 injections, 25 °C; 20 mM HEPES, 150 mM NaCl, 10 mM MgCl2, 5 mM TCEP, pH 7.2; global fit of three concentration-corrected biological replicates assuming n = 1
[4] = target: B4; assay: MST; NT647-labelled CHP3 at 10 nM, MBP-CBD titrated in 16 steps of 1:1 dilution; 20 mM HEPES, 150 mM NaCl, 0.05% Tween-20, 10 mM MgCl2, 5 mM TCEP, pH 7.2; 22 °C; bimolecular binding model; three biological replicates of five technical replicates each
[5] = target: B1; assay: ITC; CHP3 (nominal 200 uM) in the syringe injected into MBP-CBD (nominal 20 uM) in the cell, 57 injections, 25 °C; 20 mM HEPES, 150 mM NaCl, 10 mM MgCl2, 5 mM TCEP, pH 7.2; biological triplicates, raw data: each data set fitted freely (KD, dH, n, offset)
[6] = target: B1; assay: ITC; the same titrations (CHP3 in the syringe, MBP-CBD in the cell, 25 °C, ITC buffer pH 7.2) refitted one by one after the triple-shift correction: corrected active concentrations of CHP3 and MBP-CBD, dH fixed to the average of the raw fits, n = 1 by the correction
[7] = target: B2; assay: SEC; analytical SEC, Superdex 200 10/300 GL; 20 uM samples mixed equimolar (250 ul each); 20 mM HEPES, 150 mM NaCl, 1 mM TCEP, pH 7.2; peak fractions checked by SDS-PAGE

B1
Kd [1]: 3 nM and 2.4 nM and 4.5 nM and 3.3 nM
Kd [2]: 3.1 nM and 2.1 nM and 5.1 nM and 3.4 nM

B2
Kd [3]: 3 nM
Kd [4]: 62.7 nM and 54.8 nM and 49 nM and 55.5 nM

B3
stoichiometry N [5]: 0.97 and 1.2 and 1.1 and 1.09
stoichiometry N [6]: 1

B4
stoichiometry N [7]: 1
